For 25 molecules, EC50, Top630nm and Top530nm results are on record in EP4711384A1 (WIO Bioscience Co., Ltd., dated 2026).

Numbering of substitutions follows the chain as printed. Several values for one entry are separate records, joined by “and”; a condition that tells them apart may be missing. Equal entries are not always repeated. Where two headings read alike, the source gives them in different places.

In general, EC50 refers to the midpoint of the concentration-response curve. A high value points to lower potency in that assay.

Assay [1] addresses T1, human IL-18R1 and IL-18RAP on IL-18 Reporter HEK 293 Cells (human, UniProt Q13478 19-541; O95256 20-599).
T1 sequence (looked up) 1: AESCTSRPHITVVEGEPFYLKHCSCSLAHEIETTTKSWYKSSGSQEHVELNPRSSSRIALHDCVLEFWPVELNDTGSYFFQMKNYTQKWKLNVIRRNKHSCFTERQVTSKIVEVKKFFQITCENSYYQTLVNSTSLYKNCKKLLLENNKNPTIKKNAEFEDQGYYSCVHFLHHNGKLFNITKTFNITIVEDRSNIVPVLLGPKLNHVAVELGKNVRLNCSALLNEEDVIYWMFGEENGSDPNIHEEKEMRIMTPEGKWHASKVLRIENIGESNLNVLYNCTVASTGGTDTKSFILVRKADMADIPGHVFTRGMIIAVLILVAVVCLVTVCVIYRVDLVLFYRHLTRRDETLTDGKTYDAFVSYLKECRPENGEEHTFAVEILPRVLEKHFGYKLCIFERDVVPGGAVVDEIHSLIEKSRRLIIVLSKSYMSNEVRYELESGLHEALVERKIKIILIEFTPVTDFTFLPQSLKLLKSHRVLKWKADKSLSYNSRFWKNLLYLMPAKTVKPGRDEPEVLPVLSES
T1 sequence (looked up) 2: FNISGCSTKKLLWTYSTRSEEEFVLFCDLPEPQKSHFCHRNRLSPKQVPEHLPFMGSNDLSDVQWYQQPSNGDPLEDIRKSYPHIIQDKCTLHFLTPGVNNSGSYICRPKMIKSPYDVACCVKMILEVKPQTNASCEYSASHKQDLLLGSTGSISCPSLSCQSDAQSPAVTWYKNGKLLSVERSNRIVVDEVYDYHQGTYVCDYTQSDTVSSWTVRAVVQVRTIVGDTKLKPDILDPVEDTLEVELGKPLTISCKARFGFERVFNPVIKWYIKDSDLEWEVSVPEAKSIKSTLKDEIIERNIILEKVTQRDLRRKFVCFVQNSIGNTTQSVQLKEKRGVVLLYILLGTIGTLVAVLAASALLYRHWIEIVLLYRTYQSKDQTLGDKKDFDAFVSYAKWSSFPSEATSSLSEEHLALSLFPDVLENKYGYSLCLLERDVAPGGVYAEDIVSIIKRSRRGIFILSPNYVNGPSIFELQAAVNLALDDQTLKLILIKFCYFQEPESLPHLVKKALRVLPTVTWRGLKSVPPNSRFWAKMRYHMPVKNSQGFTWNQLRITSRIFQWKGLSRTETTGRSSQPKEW
Briefly: cell-based or functional assay.

Assay [2] deals with T1, human IL-18R1 and IL-18RAP on IL-18 …. Briefly: cell-based or functional assay. The source holds these as a separate data set.

B1: hzWio-02-05-His (bispecific antibody)
chain: EVQLVESGGGLVQPGGSLRLSCAASGNLYRDPCMGWFRQAPGKDREGVAAMNTGADSTFYARSVKGRFTISRDNAKNTLYLQMNSLRAEDTAVYYCAASRYCTERTYTWRYDYDYWGQGTLVTVSSGGGGSEVQLVESGGGLVQPGGSLRLSCAASGFTYIPAYMGWFRQAPGKERERVASISSTEGSTTYADSVKGRFTISQDNSKNTLYLQMNSLRPEDTAVYYCAAYQFGAFRVWGQGTLVTVSSHHHHHH
As for B1, in assay [1], the midpoint of the response, the EC50, lay at 0.201 ng/mL and the Top630nm was determined as 1.72.

B2: hzWio-02-23-His (bispecific antibody)
chain: EVQLVESGGGLVQPGGSLRLSCAASGFTVHDMGWYRQAPGKECELVSTISSDASTYYADSVKGRFTISRDNAKNTLYLQMNSLRAEDTAVYYCAADSFTGLQLAECKADFGYWGQGTLVTVSSGGGGSEVQLVESGGGLVQPGGSLRLSCAASGFTYIPAYMGWFRQAPGKERERVASISSTEGSTTYADSVKGRFTISQDNSKNTLYLQMNSLRPEDTAVYYCAAYQFGAFRVWGQGTLVTVSSHHHHHH
In assay [1], B2 had an EC50 of 0.13 ng/mL and a Top630nm of 1.95.

B3: hzWio-02-30 (His form) (bispecific antibody)
chain: EVQLVESGGGLVQPGGSLRLSCAASGFTYIPAYMGWFRQAPGKERERVASISSTEGSTTYADSVKGRFTISQDNSKNTLYLQMNSLRPEDTAVYYCAAYQFGAFRVWGQGTLVTVSSGGGGSEVQLVESGGGLVQPGGSLRLSCAASGSTFDEYDMGWYRQAPGGKCELVSTISTIDASTYYADSVKGRFTISRDNSKNTLYLQMNSLRAEDTAVYYCEADDRGTWDRGGCWGQGTLVTVSSHHHHHH
In the case of B3, in assay [1], it took 2.74 ng/mL to reach a half-maximal effect (EC50) and the Top630nm was 0.837.

B4: hzWio-02-29 (His form) (bispecific antibody)
chain: EVQLLESGGGLVQPGGSLRLSCAASGYTYGPYCMGWFRQAPGKEREGVAAVGGDARTWYGNSVKGRFTISRDNSKNTLYLQMNSLRAEDTAVYYCAADFDRTVCSDDIYDYTYRGQGTLVTVSSGGGGSEVQLVESGGGLVQPGGSLRLSCAASGTAYDNACMGWFRQAPGKEREGVASIHLRDRTYYADSVKGRFTISRDNSKNTLYLQMNSLRAEDTAVYYCASSNICNALNLQGNTYWGQGTLVTVSSHHHHHH
Turning to B4, in assay [1], the EC50 came to 0.503 ng/mL and the Top630nm is 1.61.

B5: hzWio-02-01-Hm18 (bispecific antibody)
chain: EVQLVESGGGLVQPGGSLRLSCAASGTAYDNACMGWFRQAPGKEREGVASIHLRDRTYYHDSVKGRFTISRDNSKNTLYLQMNSLRAEDTAVYYCASSNICNALNLQGNTYWGQGTLVTVSSGGGGSEVQLLESGGGLVQPGGSLRLSCAASGYTYGPYCMGWFRQAPGKEREGVAAVGGDARTWYGNSVKGRFTISRDNSKNTLYLQMNSLRAEDTAVYYCAADFDRTVCSDDIYDYTYRGQGTLVTVSSHHHHHH
With B5, in assay [2], the response was half-maximal at 0.696 ng/mL (EC50) and the Top530nm came to 1.07.

B6: hzWio-02-01-Hm19 (bispecific antibody)
chain: B5 chain with H60A, D61H
For the molecule B6, in assay [2], it took 0.84 ng/mL to reach a half-maximal effect (EC50) and the Top530nm is 0.738.

B7: hzWio-02-01-Hm31 (bispecific antibody)
chain: B5 chain with H60A, L106H
In assay [2], B7 displayed an EC50 of 7.75 ng/mL and a Top530nm of 1.05.

B8: hzWio-02-01-Hm25 (bispecific antibody)
chain: B5 chain with H60A, N99H
For B8, in assay [2], the half-maximal effective concentration (EC50) turned out to be 0.04 ng/mL and the Top530nm turned out to be 0.738.

B9: hzWio-02-01-Hm33 (bispecific antibody)
chain: B5 chain with H60A, G108H
For B9, in assay [2], the EC50 was 19.5 ng/mL and the Top530nm is 1.1.

B10: hzWio-02-01-Hm28 (bispecific antibody)
chain: B5 chain with H60A, A103H
In assay [2], B10 returned an EC50 of 0.42 ng/mL and a Top530nm of 0.821.

B11: hzWio-02-01-Hm20 (bispecific antibody)
chain: B5 chain with H60A, S62H
Take B11: in assay [2], the EC50 is 0.582 ng/mL and the Top530nm came out at 2.75.

B12: hzWio-02-01-Hm26 (bispecific antibody)
chain: B5 chain with H60A, I100H
In assay [2], B12 yielded an EC50 of 0.301 ng/mL and a Top530nm of 0.764.

B13: hzWio-02-01-Hm21 (bispecific antibody)
chain: B5 chain with H60A, V63H
In assay [2], B13 gave an EC50 of 2.12 ng/mL and a Top530nm of 1.12.

B14: hzWio-02-01-Hm32 (bispecific antibody)
chain: B5 chain with H60A, Q107H
For B14, in assay [2], the half-maximal effective concentration (EC50) is 10.9 ng/mL and the Top530nm was determined as 1.09.

B15: hzWio-02-01-Hm22 (bispecific antibody)
chain: B5 chain with H60A, K64H
In assay [2], B15 showed an EC50 of 0.182 ng/mL and a Top530nm of 0.773.

B16: hzWio-02-01-Hm34 (bispecific antibody)
chain: B5 chain with H60A, N109H
As to B16, in assay [2], the EC50 came out at 12.9 ng/mL and the Top530nm was 1.

B17: hzWio-02-01-Hm30 (bispecific antibody)
chain: B5 chain with H60A, N105H
With B17, in assay [2], a half-maximal effect (EC50) was put at 28.7 ng/mL and the Top530nm came out at 0.349.

B18: hzWio-02-01-Hm23 (bispecific antibody)
chain: B5 chain with H60A, G65H
For the molecule B18, in assay [2], the midpoint of the response, the EC50, lay at 0.238 ng/mL and the Top530nm was 0.794.

B19: hzWio-02-01-Hm27 (bispecific antibody)
chain: B5 chain with H60A, N102H
In assay [2], B19 displayed an EC50 of 0.433 ng/mL and a Top530nm of 0.773.

B20: hzWio-02-01-Hm24 (bispecific antibody)
chain: B5 chain with H60A, S98H
In assay [2], B20 yielded a half-maximal effective concentration (EC50) of 1.97 ng/mL and a Top530nm of 0.774.

B21: hzWio-02-01-Hm35 (bispecific antibody)
chain: B5 chain with H60A, T110H
In assay [2], B21 had an EC50 of 6.99 ng/mL and a Top530nm of 1.18.

B22: hzWio-02-01-Hm29 (bispecific antibody)
chain: B5 chain with H60A, L104H
For B22, the EC50 in assay [2] is 0.67 ng/mL and 1.49 ng/mL.

B23: hzWio-02-03-His (bispecific antibody)
chain: EVQLVESGGGLVQPGGSLRLSCAASGNLYRDPCMGWFRQAPGKDREGVAAMNTGADSTFYARSVKGRFTISRDNAKNTLYLQMNSLRAEDTAVYYCAASRYCTERTYTWRYDYDYWGQGTLVTVSSGGGGSEVQLVESGGGLVQPGGSLRLSCAASGFTYIPAYMGWFRQAPGKERERVASIKTDASTTYADSVEGRFTISQDNAKNTLYLQMNSLRPEDTAVYYCAAYQFGAFRVWGQGTLVTVSSHHHHHH
For the molecule B23, in assay [1], a half-maximal response (EC50) required 0.394 ng/mL and the Top630nm is 1.82.

B24: hzWio-02-09 (His form) (bispecific antibody)
chain: EVQLVESGGGLVQPGGSLRLSCAASGSTFDEYDMGWYRQAPGGKCELVSTISTIDASTYYADSVKGRFTISRDNSKNTLYLQMNSLRAEDTAVYYCEADDRGTWDRGGCWGQGTLVTVSSGGGGSEVQLVESGGGLVQPGGSLRLSCAASGFTYIPAYMGWFRQAPGKERERVASIKTDASTTYADSVEGRFTISQDNAKNTLYLQMNSLRPEDTAVYYCAAYQFGAFRVWGQGTLVTVSSHHHHHH
B24: in assay [1], the response was half-maximal at 0.668 ng/mL (EC50) and the Top630nm was 1.88.

B25: hzWio-02-11-His (bispecific antibody)
chain: EVQLVESGGGLVQPGGSLRLSCAASGSTFDEYDMGWYRQAPGGKCELVSTISTIDASTYYADSVKGRFTISRDNSKNTLYLQMNSLRAEDTAVYYCEADDRGTWDRGGCWGQGTLVTVSSGGGGSEVQLVESGGGLVQPGGSLRLSCAASGFTYIPAYMGWFRQAPGKERERVASISSTEGSTTYADSVKGRFTISQDNSKNTLYLQMNSLRPEDTAVYYCAAYQFGAFRVWGQGTLVTVSSHHHHHH
In assay [1], B25 yielded an EC50 of 0.101 ng/mL and a Top630nm of 1.58.
